From the RNAGym collection of RNA variant scans (doi:10.7554/elife.80360)

B1: Twister Ribozyme (parent)
chain: AACACUGCCAAUGCCGGUCCCAAGCCCGGAUAAAAGUGGAGGGGGCGG

Variants of: B1
Assay: self-cleavage, relative activity (ratio to wild type); higher = more cleavage; co-transcriptional

| Variant | self-cleavage |
| --- | --- |
| AACACUGCCAAUGCCGGUCCCAAGCCCGUAUAAAAGUGGAGGGGGCGG [G29U] | 0.937 |
| AACACUGCCAAUGCCGGUCCCAAGCCCGCAUAAAAGUGGAGGGGGCGG [G29C] | 0.858 |
| AACACUGCCAAUGCCGGUCCCAAGCCCGCAUAAAAGUGGAGGUGGCGG [G29C G43U] | 0.156 |
| AACACUGCCAAUGCCGGUCCCAAGCCCGUAUAACAGUGGAGGGGGCGG [G29U A34C] | 0.185 |
| AACACUGCCAAUGCCGGUCCCAAGCCCGUAUAAUAGUGGAGGGGGCGG [G29U A34U] | 0.666 |
| AACACUGCCAAUGCCGGUCCCAAGCCCGGCCAAAAGUGGAGGGGGCGG [A30C U31C] | 0.841 |
| AACACUGCCAAUGCCGGUCCCAAGCCCGGCAAAAAGUGGAGGGGGCGG [A30C U31A] | 0.687 |
| AACACUGCCAAUGCCGGUCCCAAGCCCGCAUAAGAGUGGAGGGGGCGG [G29C A34G] | 0.214 |
| AACACUGCCAAUGCCGGUCCCAAGCCCGCAUAACAGUGGAGGGGGCGG [G29C A34C] | 0.148 |
| AACACUGCCAAUGCCGGUCCCAAGCCCGUGUAAAAGUGGAGGGGGCGG [G29U A30G] | 1 |
| AACACUGCCAAUGCCGGUCCCAAGCCCGCAUUAAAGUGGAGGGGGCGG [G29C A32U] | 0.443 |
| AACACUGCCAAUGCCGGUCCCAAGCCCGCAUAAAAGUGGAGAGGGCGG [G29C G42A] | 0.11 |
| AACACUGCCAAUGCCGGUCCCAAGCCCGCAUAAAAGUGGAGCGGGCGG [G29C G42C] | 0.174 |
| AACACUGCCAAUGCCGGUCCCAAGCCCGCAUAAAAGUGGAGUGGGCGG [G29C G42U] | 0.129 |
| AACACUGCCAAUGCCGGUCCCAAGCCCGUAUAAAAGUGCAGGGGGCGG [G29U G39C] | 0.116 |
| AACACUGCCAAUGCCGGUCCCAAGCCCGUAUAAAAGUGAAGGGGGCGG [G29U G39A] | 0.417 |
| AACACUGCCAAUGCCGGUCCCAAGCCCGUAUAAAAGUGUAGGGGGCGG [G29U G39U] | 0.223 |
| AACACUGCCAAUGCCGGUCCCAAGCCCGGCUUAAAGUGGAGGGGGCGG [A30C A32U] | 0.9 |
| AACACUGCCAAUGCCGGUCCCAAGCCCGGCUCAAAGUGGAGGGGGCGG [A30C A32C] | 0.758 |
| AACACUGCCAAUGCCGGUCCCAAGCCCGUAUAAAACUGGAGGGGGCGG [G29U G36C] | 0.319 |
| AACACUGCCAAUGCCGGUCCCAAGCCCGUAUAAAAUUGGAGGGGGCGG [G29U G36U] | 0.212 |
| AACACUGCCAAUGCCGGUCCCAAGCCCGGCUAAAAGUCGAGGGGGCGG [A30C G38C] | 0.732 |
| AACACUGCCAAUGCCGGUCCCAAGCCCGAAUAAAAGUGGAUGGGGCGG [G29A G41U] | 0.461 |
| AACACUGCCAAUGCCGGUCCCAAGCCCGGCUAAAAGUGGAGGGGUCGG [A30C G45U] | 0.573 |
| AACACUGCCAAUGCCGGUCCCAAGCCCGGCUAAAAGGGGAGGGGGCGG [A30C U37G] | 0.306 |
| AACACUGCCAAUGCCGGUCCCAAGCCCGGCUAAAAGUGGAGGGUGCGG [A30C G44U] | 0.793 |
| AACACUGCCAAUGCCGGUCCCAAGCCCGGCUAAAAGUGGAGGGCGCGG [A30C G44C] | 0.874 |

| Variant | self-cleavage |
| --- | --- |
| AACACUGCCAAUGCCGGUCCCAAGCCCGUAUAAAAGUGGACGGGGCGG [G29U G41C] | 0.25 |
| AACACUGCCAAUGCCGGUCCCAAGCCCGCAUAAAAGUGAAGGGGGCGG [G29C G39A] | 0.143 |
| AACACUGCCAAUGCCGGUCCCAAGCCCGCAUAAAAGUGUAGGGGGCGG [G29C G39U] | 0.12 |
| AACACUGCCAAUGCCGGUCCCAAGCCCGGCUAAAAGUGGAGGGGGUGG [A30C C46U] | 0.798 |
| AACACUGCCAAUGCCGGUCCCAAGCCCGGCUAAAAGUGGAGGGGGGGG [A30C C46G] | 0.647 |
| AACACUGCCAAUGCCGGUCCCAAGCCCGGCUAAAAGUGGAGGGGGAGG [A30C C46A] | 0.612 |
| AACACUGCCAAUGCCGGUCCCAAGCCCGCAUAAAAGUGGACGGGGCGG [G29C G41C] | 0.0927 |
| AACACUGCCAAUGCCGGUCCCAAGCCCGCAUAAAAGGGGAGGGGGCGG [G29C U37G] | 0.4 |
| AACACUGCCAAUGCCGGUCCCAAGCCCGCAUAAAAGAGGAGGGGGCGG [G29C U37A] | 0.259 |
| AACACUGCCAAUGCCGGUCCCAAGCCCGCAUAAAAGCGGAGGGGGCGG [G29C U37C] | 0.182 |
| AACACUGCCAAUGCCGGUCCCAAGCCCGAAUAAAAGUGUAGGGGGCGG [G29A G39U] | 0.232 |
| AACACUGCCAAUGCCGGUCCCAAGCCCGUAUAAAAGUGGUGGGGGCGG [G29U A40U] | 0.145 |
| AACACUGCCAAUGCCGGUCCCAAGCCCGUAUAAAAGUGGGGGGGGCGG [G29U A40G] | 0.167 |
| AACACUGCCAAUGCCGGUCCCAAGCCCGUAUAAAAGUGGCGGGGGCGG [G29U A40C] | 0.208 |
| AACACUGCCAAUGCCGGUCCCAAGCCCGUAUCAAAGUGGAGGGGGCGG [G29U A32C] | 0.836 |
| AACACUGCCAAUGCCGGUCCCAAGCCCGUAUAGAAGUGGAGGGGGCGG [G29U A33G] | 0.747 |
| AACACUGCCAAUGCCGGUCCCAAGCCCGCAUAAAAUUGGAGGGGGCGG [G29C G36U] | 0.106 |
| AACACUGCCAAUGCCGGUCCCAAGCCCGUAUAAAAGUGGAGGAGGCGG [G29U G43A] | 0.23 |
| AACACUGCCAAUGCCGGUCCCAAGCCCGUAUAAAAGUGGAGGCGGCGG [G29U G43C] | 0.19 |
| AACACUGCCAAUGCCGGUCCCAAGCCCGUACAAAAGUGGAGGGGGCGG [G29U U31C] | 0.972 |
| AACACUGCCAAUGCCGGUCCCAAGCCCGUAGAAAAGUGGAGGGGGCGG [G29U U31G] | 0.92 |
| AACACUGCCAAUGCCGGUCCCAAGCCCGAAUAAAACUGGAGGGGGCGG [G29A G36C] | 0.246 |
| AACACUGCCAAUGCCGGUCCCAAGCCCGCAUAAAAGUGGGGGGGGCGG [G29C A40G] | 0.157 |
| AACACUGCCAAUGCCGGUCCCAAGCCCGUAUAAAAGUUGAGGGGGCGG [G29U G38U] | 0.666 |
| AACACUGCCAAUGCCGGUCCCAAGCCCGAAUAAAAGUGGAGGAGGCGG [G29A G43A] | 0.195 |
| AACACUGCCAAUGCCGGUCCCAAGCCCGAAUAAAAGUGGAGGUGGCGG [G29A G43U] | 0.326 |
| AACACUGCCAAUGCCGGUCCCAAGCCCGAAUAAAAGUGGAGGCGGCGG [G29A G43C] | 0.163 |
